This is an account of results in the supplement of paper PMC12764529.

± gives the half width of the 95% confidence interval.

The nature of series [1]: folding stability dG unfold (combined trypsin and chymotrypsin); higher = more stable. In a few lines:
(§1)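 Only designs with AlphaFold2 dimer inter-PAE above 15 were retained; each was a mini-protein under 80 residues with no cysteine, in a PA-tagged cDNA display construct. After digestion with trypsin and chymotrypsin and sequencing, K50 was inferred by Bayesian fitting of counts, and unfolding free energy was derived per protease or combined against a sequence-predicted unfolded-state K50 and a shared folded-state K50.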

The nature of series [2]: folding stability dG unfold from trypsin proteolysis; higher = more stable. In a few lines:
as §1

Series [3] in a line: folding stability dG unfold from chymotrypsin proteolysis; higher = more stable. In a few lines: as §1

Take “SAGGSAGGSAGGSGSITITYSSDGDKYSATFTVPDGTVVTVPNMSVDEAKKVAEKFLKSSAGGSAGGSAGGS [r4_383_JUSTAS]”: the “folding stability dG unfold” value was 0.659 ± 0.095 kcal/mol in series [1], -0.389 ± 0.14 kcal/mol in series [2] and 1.08 ± 0.12 kcal/mol in series [3].
For “SAGGSAGGSAGGSGVSITTTLPVKTTVLQPFNTFENKLLLKEVEKTILTTVTLTLPPLLSAGGSAGGSAGGS [r4_326_JUSTAS]”, the “folding stability dG unfold” value in series [1] is 0.148 ± 0.21 kcal/mol; in series [2], 0.316 ± 0.068 kcal/mol; in series [3] it was -0.0828 ± 0.29 kcal/mol.
With “SAGGSAGGSAGGSIVVETKKNPGPERVVTVKLPDGTPLADVPVSPDEDPEEAVKRALELGSAGGSAGGSAGG [r7_444_JUSTAS]”, the entries for the “folding stability dG unfold” value in series [1], in series [2] and in series [3] were 0.386 ± 0.17 kcal/mol, 0.0908 ± 0.071 kcal/mol and 0.305 ± 0.037 kcal/mol, respectively.
“SAGGSAGGSAGGSKEIKVEVEEKDGKLTVTVTFPDGSKVEIEGMSAEEVEKLVKELAKKSAGGSAGGSAGGS [r4_383_TrROS_Hall]”: the “folding stability dG unfold” value was 2.06 ± 0.061 kcal/mol in series [1], 1.4 ± 0.061 kcal/mol in series [2] and 2.36 ± 0.1 kcal/mol in series [3].
“SAGGSAGGSAGGSKIYKLKVNGSVEKLIENLKKAGFKVEILSVYYDPETKELYVLFKISSAGGSAGGSAGGS [r4_315_TrMRF]”: the results for the “folding stability dG unfold” value in series [1], in series [2] and in series [3] were 4.32 ± 0.079 kcal/mol, 3.85 ± 0.1 kcal/mol and 4.57 ± 0.068 kcal/mol, respectively.
Consider “SAGGSAGGSAGGSKKEKYYLVTRIEVEVNGKKYPLGSKLPKNLPPGAKIKIETRIVKLDSAGGSAGGSAGGS [r4_436_TrROS_Hall]”, for which the entries for the “folding stability dG unfold” value in series [1], in series [2] and in series [3] were 1.83 ± 0.25 kcal/mol, 2.35 ± 0.15 kcal/mol and 1.58 ± 0.071 kcal/mol, respectively.
Consider “SAGGSAGGSAGGSKKKIKIYIENENGEKKTIEIEVEGDIDEIAKELAKKYNVKIVKIEPSAGGSAGGSAGGS [r4_412_TrROS_Hall]”, for which the “folding stability dG unfold” value in series [1] amounted to 3.05 ± 0.05 kcal/mol; in series [2] it was 2.77 ± 0.11 kcal/mol; in series [3], 3.16 ± 0.081 kcal/mol.
For “SAGGSAGGSAGGSKKTIKVRIKIEVDGKTYEITVELPEEGMSLEELLKKFPNAKITEIESAGGSAGGSAGGS [r4_278_TrROS_Hall]”, in that order: 3.22 ± 0.23 kcal/mol, 3.15 ± 0.26 kcal/mol and 3.08 ± 0.17 kcal/mol.
Consider “SAGGSAGGSAGGSKKYKAKIVSVEYDEETKEVTIKVKLENGEEKTITMSLEELKEIELPSAGGSAGGSAGGS [r4_51_TrROS_Hall]”, for which the entries for the “folding stability dG unfold” value in series [1], in series [2] and in series [3] were 2.77 ± 0.079 kcal/mol, 1.97 ± 0.081 kcal/mol and 3.15 ± 0.033 kcal/mol, respectively.
“SAGGSAGGSAGGSKLPEGAKITITKNEDGSYTLTVTFPNGEKVEITMSEDELKKLLEALSAGGSAGGSAGGS [r4_16_TrROS_Hall]”: the results for the “folding stability dG unfold” value in series [1], in series [2] and in series [3] were 3.79 ± 0.14 kcal/mol, 3.84 ± 0.15 kcal/mol and 3.64 ± 0.11 kcal/mol, respectively.
For “SAGGSAGGSAGGSKNKKIKLGPEVKIKVKIEAKLEGGYSSENGLPEFKLDVKLEIGEVESAGGSAGGSAGGS [r10_877_TrMRF]”, in that order: 0.94 ± 0.26 kcal/mol, 0.727 ± 0.068 kcal/mol and 1.09 ± 0.13 kcal/mol.
Consider “SAGGSAGGSAGGSKPKKIKVETVTLEDGLTLQVVVNEDTKEKVIVLVPPSEEVTVLVEPSAGGSAGGSAGGS [r4_99_TrROS_Hall]”, for which the “folding stability dG unfold” value in series [1] was 0.648 ± 0.15 kcal/mol; in series [2], -0.249 ± 0.31 kcal/mol; in series [3], 1.11 ± 0.076 kcal/mol.
Turning to “SAGGSAGGSAGGSKPKMYILKIKIKVEVKYDKETNEIVEEEIEIEIEIIEVKPGEKLELSAGGSAGGSAGGS [r4_175_TrROS_Hall]”, the “folding stability dG unfold” value in series [1] is 2.52 ± 0.35 kcal/mol; in series [2], 1.42 ± 0.13 kcal/mol; in series [3] it was 3.28 ± 0.092 kcal/mol.
For “SAGGSAGGSAGGSKTKAELFKVGDKLILATYHPDTGKVEIFYPDNSVETLPAEEAEKLFSAGGSAGGSAGGS [r10_1140_TrMRF]”, in that order: 1.03 ± 0.14 kcal/mol, 1.02 ± 0.052 kcal/mol and 0.957 ± 0.13 kcal/mol.
For the sequence “SAGGSAGGSAGGSKTLTPEEIKKLLDEAKKKGYKTVKITVKNKNGKTYTFTIKIPKEDLSAGGSAGGSAGGS [r4_342_TrROS_Hall]”, the “folding stability dG unfold” value stood at 2.95 ± 0.23 kcal/mol in series [1], 2.76 ± 0.18 kcal/mol in series [2] and 3.13 ± 0.079 kcal/mol in series [3].
For the sequence “SAGGSAGGSAGGSLELTFLLEDGTLAKVRIELNEDGELSISVELFELPAPEPVEVRFYPESAGGSAGGSAGG [r7_79_TrROS_Hall]”, the “folding stability dG unfold” value was 2.42 ± 0.18 kcal/mol in series [1], 1.42 ± 0.051 kcal/mol in series [2] and 2.8 ± 0.084 kcal/mol in series [3].
Consider “SAGGSAGGSAGGSLKVEVTLDPETNELTVRTTLTLPPPPPPPPTTTTTTTTTLAPGETASAGGSAGGSAGGS [r10_86_TrROS_Hall]”, for which the “folding stability dG unfold” value in series [1] was 0.0927 ± 0.38 kcal/mol; in series [2], -0.349 ± 0.43 kcal/mol; in series [3] it was 0.776 ± 0.22 kcal/mol.
With “SAGGSAGGSAGGSMELIPTPEDTVTVVETTPVAPTPNGTPVPATVTTTTLPKEEVEAAASAGGSAGGSAGGS [r4_238_JUSTAS]”, the “folding stability dG unfold” value in series [1] came out at 2.1 ± 0.062 kcal/mol; in series [2], 2.71 ± 0.057 kcal/mol; in series [3] it was 1.53 ± 0.03 kcal/mol.
